Here are results for 21 molecules from patent US20240116985A1, “STAPLED PEPTIDES AND METHODS THEREOF” (priority 2020, published 2024).

Test [1] concerns the target full-length beta-Catenin (Uniprot ID P35222) (Homo sapiens (Human)) (UniProt P35222). The test can be described thus: fluorescence polarization competition; full-length beta-catenin, competitor 5FAM-TCF4(10-53) probe.
Target sequence in this assay (P35222 whole entry): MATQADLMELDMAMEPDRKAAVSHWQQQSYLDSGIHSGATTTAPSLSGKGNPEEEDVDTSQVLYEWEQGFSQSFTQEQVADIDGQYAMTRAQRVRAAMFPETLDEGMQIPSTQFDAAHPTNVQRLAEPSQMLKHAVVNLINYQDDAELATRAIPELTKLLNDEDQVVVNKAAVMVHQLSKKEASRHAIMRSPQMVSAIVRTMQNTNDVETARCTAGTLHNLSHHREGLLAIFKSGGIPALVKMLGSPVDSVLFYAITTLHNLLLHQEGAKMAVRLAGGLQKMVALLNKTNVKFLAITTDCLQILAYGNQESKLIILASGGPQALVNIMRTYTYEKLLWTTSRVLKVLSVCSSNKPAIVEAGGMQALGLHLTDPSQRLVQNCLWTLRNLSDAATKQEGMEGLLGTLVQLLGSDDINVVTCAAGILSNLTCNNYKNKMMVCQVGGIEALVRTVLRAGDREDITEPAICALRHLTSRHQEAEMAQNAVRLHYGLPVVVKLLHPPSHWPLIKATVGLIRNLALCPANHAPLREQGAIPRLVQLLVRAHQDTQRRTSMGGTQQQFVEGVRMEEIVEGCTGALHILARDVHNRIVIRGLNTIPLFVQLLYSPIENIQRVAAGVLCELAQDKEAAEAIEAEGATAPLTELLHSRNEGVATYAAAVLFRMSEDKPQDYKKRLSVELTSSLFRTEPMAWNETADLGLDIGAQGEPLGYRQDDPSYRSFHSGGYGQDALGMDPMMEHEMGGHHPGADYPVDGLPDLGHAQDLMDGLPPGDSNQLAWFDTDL
Test [2] has the same target. In words: fluorescence polarization competition: full-length beta-catenin + 5FAM-TCF4(10-53) probe, peptide titrated.
Target sequence in this assay (P35222 whole entry): as above
The target is the same in test [3]. In words: fluorescence polarization competition; 10 nM full-length beta-catenin + 10 nM 5FAM-TCF4(10-53) probe, peptide titrated 10 uM to 5 nM. In general terms: Fluorescence polarisation rises when a labelled molecule tumbles more slowly, as on binding a larger partner.
Target sequence in this assay (P35222 2-781 limits assumed): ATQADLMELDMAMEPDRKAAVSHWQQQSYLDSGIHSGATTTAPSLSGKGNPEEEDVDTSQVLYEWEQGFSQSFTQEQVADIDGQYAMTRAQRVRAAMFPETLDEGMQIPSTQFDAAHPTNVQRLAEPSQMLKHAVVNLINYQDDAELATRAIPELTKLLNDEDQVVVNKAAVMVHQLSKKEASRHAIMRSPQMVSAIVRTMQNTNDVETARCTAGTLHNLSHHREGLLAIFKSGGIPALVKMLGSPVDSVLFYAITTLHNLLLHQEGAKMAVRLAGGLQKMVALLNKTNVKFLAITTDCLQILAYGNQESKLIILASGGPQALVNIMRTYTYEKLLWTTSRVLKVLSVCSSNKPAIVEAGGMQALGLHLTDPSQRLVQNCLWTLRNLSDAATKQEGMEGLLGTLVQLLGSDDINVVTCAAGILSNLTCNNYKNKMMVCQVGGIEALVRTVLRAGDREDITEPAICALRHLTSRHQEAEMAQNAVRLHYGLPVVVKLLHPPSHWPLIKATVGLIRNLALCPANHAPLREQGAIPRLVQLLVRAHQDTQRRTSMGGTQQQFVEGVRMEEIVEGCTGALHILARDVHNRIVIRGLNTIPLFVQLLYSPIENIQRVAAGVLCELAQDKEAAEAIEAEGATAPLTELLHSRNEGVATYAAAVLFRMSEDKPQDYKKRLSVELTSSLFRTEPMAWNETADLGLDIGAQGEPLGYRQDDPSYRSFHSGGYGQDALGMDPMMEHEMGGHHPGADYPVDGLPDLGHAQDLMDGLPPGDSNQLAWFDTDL

By IC50 is commonly meant the concentration that inhibits the measured activity by half. The EC50 is the concentration that produces a half-maximal response.

Starred links: 1 amine or outer side, 2 acyl side, 3 side chain; linkers in the order of their positions; H or OH if unused. Positions of bridges follow the written chain, without caps; N, C: chain ends. Non-standard residues stand in square brackets, D forms with d. Primed or numbered codes have the meaning given here. PyrS2″ = (S)-3-amino-1-((pent-4-en-1-yloxy)carbonyl)pyrrolidine-3-carboxylic acid (stapling residue), C=CCCCOC(=O)N1CC[C@@](N[*:1])(C(=O)[*:2])C1; B5(30) = 2-amino-2-(pent-4-en-1-yl)hept-6-enoic acid (2,2-bis(4-pentenyl)glycine, stitching residue), C=CCCCC(CCCC=C)(N[*:1])C(=O)[*:2]; B5(4) = 2,2-bis(4-pentenyl)glycine = 2-amino-2-(pent-4-en-1-yl)hept-6-enoic acid (stitching residue), C=CCCCC(CCCC=C)(N[*:1])C(=O)[*:2]; B5(5) = 2,2-bis(4-pentenyl)glycine, 2-amino-2-(pent-4-en-1-yl)hept-6-enoic acid (stitching residue), C=CCCCC(CCCC=C)(N[*:1])C(=O)[*:2]; (3C)TriAzdLys = (R)-2-amino-6-(4-propyl-1H-1,2,3-triazol-1-yl)hexanoic acid, CCCc1cn(CCCC[C@@H](N[*:1])C(=O)[*:2])nn1; Ala(1H-tetrazol-5-yl) = N[C@@H](Cc1nnn[nH]1)C(=O)O; Phe(3-COOH) = N[C@@H](Cc1cccc(C(=O)O)c1)C(=O)O; Phe(2-CF3) = N[C@@H](Cc1ccccc1C(F)(F)F)C(=O)O; 2Nal = N[C@@H](Cc1ccc2ccccc2c1)C(=O)O; Bta = N[C@@H](Cc1csc2ccccc12)C(=O)O; Lys(iPr) = CC(C)NCCCC[C@H](N)C(=O)O; αAllylPro = C=CC[C@@]1(C(=O)O)CCCN1; hPhe = N[C@@H](CCc1ccccc1)C(=O)O; tBuAla = CC(C)(C)C[C@H](N)C(=O)O; 2Thi = N[C@@H](Cc1cccs1)C(=O)O; 3Thi = N[C@@H](Cc1ccsc1)C(=O)O; Cha = N[C@@H](CC1CCCCC1)C(=O)O; S8 = C=CCCCCCC[C@](C)(N)C(=O)O; hSer = N[C@@H](CCO)C(=O)O

Regarding Ac-[αAllylPro]DA[B5(4)]DEAAFN[S8][hPhe][Bta]Q-NH2 (staple 1-4, 4-11; also: staple isomer composition, earlier-eluting HPLC peak) [I-442], the IC50 in test [1] is 4480 nM. Also, in test [2], the EC50 amounted to 4480 nM.
As to Ac-[αAllylPro]DA[B5(4)]DEAA[2Thi]N[S8]F[Bta]Q-NH2 (staple 1-4, 4-11; also: staple isomer composition, earlier-eluting HPLC peak) [I-446], the IC50 in test [1] came to 130 nM. Besides, the EC50 in test [2] is 130 nM.

B1: I-2447 (peptide)
peptide: Ac-[αAllylPro]N[Cha][B5(30)]DT[hSer]AFL[PyrS2″]F[Bta]Q-NH2
modifications: staple 1-4, 4-11; not fully specified; printed as Ac-PL3-Asn-Cha-B5-Asp-Thr-Hse-Ala-Phe-Leu-PyrS2-Phe-BztA-Gln-NH2
With B1, the IC50 in test [3] came out at 3250 nM.

B2: I-2446 (peptide)
peptide: Ac-[αAllylPro]N[Cha][B5(5)]DQ[Lys(iPr)]AFL[PyrS2″][3Thi][Bta]Q-NH2
modifications: staple 1-4, 4-11; not fully specified; printed as Ac-PL3-Asn-Cha-B5-Asp-Gln-iPrLys-Ala-Phe-Leu-PyrS2-3Thi-BztA-Gln-NH2
Turning to B2, the IC50 in test [3] came to 93 nM.
Take Ac-[αAllylPro][hSer][tBuAla][B5(5)]DQAAFL[PyrS2″]F[Bta]Q-NH2 (staple 1-4, 4-11) [I-2443]: in test [3], the IC50 is 6670 nM.
On to Ac-[αAllylPro]DA[B5(4)]D[Ala(1H-tetrazol-5-yl)]AAFN[S8]F[Bta]Q-NH2 (staple 1-4, 4-11) [I-444], for which, in test [1], the IC50 was 80 nM. For the same molecule, the EC50 in test [2] was found to be 80 nM.

B3: I-2454 (peptide)
peptide: Ac-[αAllylPro]N[Cha][B5(30)]DT[hSer]AFL[PyrS2″]F[Bta]K-NH2
modifications: staple 1-4, 4-11; not fully specified; printed as Ac-PL3-Asn-Cha-B5-Asp-Thr-Hse-Ala-Phe-Leu-PyrS2-Phe-BztA-Lys-NH2; also: staple -CH=CH- reduced to -CH2-CH2-
For B3, the IC50 in test [3] turned out to be 10000 nM.
In the case of Ac-[αAllylPro]D[tBuAla][B5(4)]D[Phe(3-COOH)]QAFL[PyrS2″][Phe(2-CF3)][2Nal]A-NH2 (staple 1-4, 4-11) [I-2461], the IC50 in test [3] was 75 nM.

B4: I-2455 (peptide)
peptide: Ac-[αAllylPro]N[Cha][B5(30)]DT[Lys(iPr)]AFL[PyrS2″]F[Bta]K-NH2
modifications: staple 1-4, 4-11; not fully specified; printed as Ac-PL3-Asn-Cha-B5-Asp-Thr-iPrLys-Ala-Phe-Leu-PyrS2-Phe-BztA-Lys-NH2; also: staple -CH=CH- reduced to -CH2-CH2-
With B4, the IC50 in test [3] was 10000 nM.
Turning to Ac-[αAllylPro]D[tBuAla][B5(4)]D[Phe(3-COOH)]QAFL[PyrS2″][Phe(2-CF3)][SbMeBztA]A-NH2 (staple 1-4, 4-11) [I-2457], in test [3], the IC50 worked out at 52 nM.
For the molecule Ac-[αAllylPro]D[tBuAla][B5(4)]D[Phe(3-COOH)]QAFL[PyrS2″][Phe(2-CF3)][RbMeBztA]A-NH2 (staple 1-4, 4-11) [I-2459], the IC50 in test [3] turned out to be 56 nM.
In the case of Ac-[αAllylPro]N[Cha][B5(4)]DT[Lys(iPr)]AFL[PyrS2″]F[Bta]K-NH2 (staple 1-4, 4-11) [I-2450], in test [3], the IC50 came out at 63 nM.
The molecule Ac-[αAllylPro]DA[B5(4)]DEAA[2Thi]N[S8]F[Bta]Q-NH2 (staple 1-4, 4-11) [I-447] returned an IC50 in test [1] of 74 nM. For the same molecule, the EC50 in test [2] was determined as 74 nM.
Ac-[αAllylPro]DA[B5(4)]DEAA[3Thi]N[S8]F[Bta]Q-NH2 (staple 1-4, 4-11) [I-448] yielded an IC50 in test [1] of 92 nM. The EC50 in test [2] amounted to 92 nM.
In test [1], Ac-[αAllylPro]DA[B5(4)]DEAA[3Thi]N[S8]F[Bta]Q-NH2 (staple 1-4, 4-11) [I-449] displayed an IC50 of 53 nM. In test [2], the EC50 was determined as 53 nM.
Ac-[αAllylPro]DA[B5(4)]DEAAFN[S8][hPhe][Bta]Q-NH2 (staple 1-4, 4-11; also: staple isomer composition, later-eluting HPLC peak) [I-443]: the IC50 in test [1] stood at 2130 nM. The EC50 in test [2] stood at 2130 nM.

B5: I-2444 (peptide)
peptide: Ac-[αAllylPro]D[tBuAla][B5(30)]D[Phe(3-COOH)]AAFL[PyrS2″][Phe(2-CF3)][Bta]S[(3C)TriAzdLys]-NH2
modifications: staple 1-4, 4-11; not fully specified; printed as Ac-PL3-Asp-Npg-B5-Asp-3COOHF-Ala-Ala-Phe-Leu-PyrS2-2F3MeF-BztA-Ser-[3C]TriAzdLys-NH2
In the case of B5, the IC50 in test [3] was found to be 121 nM.

B6: I-2451 (peptide)
peptide: Ac-[αAllylPro]N[Cha][B5(30)]DQ[hSer]AFL[PyrS2″][3Thi][Bta]Q-NH2
modifications: staple 1-4, 4-11; not fully specified; printed as Ac-PL3-Asn-Cha-B5-Asp-Gln-Hse-Ala-Phe-Leu-PyrS2-3Thi-BztA-Gln-NH2; also: staple -CH=CH- reduced to -CH2-CH2-
Regarding B6, the IC50 in test [3] is 4860 nM.

B7: I-2452 (peptide)
peptide: Ac-[αAllylPro]N[Cha][B5(30)]DQ[Lys(iPr)]AFL[PyrS2″][3Thi][Bta]Q-NH2
modifications: staple 1-4, 4-11; not fully specified; printed as Ac-PL3-Asn-Cha-B5-Asp-Gln-iPrLys-Ala-Phe-Leu-PyrS2-3Thi-BztA-Gln-NH2; also: staple -CH=CH- reduced to -CH2-CH2-
B7: in test [3], the IC50 came to 7200 nM.
For the molecule Ac-[αAllylPro]DA[B5(4)][Ala(1H-tetrazol-5-yl)]DAAFN[S8]F[Bta]Q-NH2 (staple 1-4, 4-11) [I-445], the IC50 in test [1] amounted to 4960 nM. Also, in test [2], the EC50 turned out to be 4960 nM.
In the case of Ac-[αAllylPro]N[Cha][B5(30)]DT[hSer]AFL[PyrS2″]F[Bta]K-NH2 (staple 1-4, 4-11) [I-2449], the IC50 in test [3] was determined as 10000 nM.
